Measured values published in US10184140B2, “Materials and methods for production of bi-functional fatty acids in recombinant bacteria” (IOWA STATE UNIVERSITY RESEARCH FOUNDATION, INC., priority 2013, dated 2019).

Key:
[1] = Spectrophotometric coupled assay (FabD/FabG, NADPH at 340 nm) of KASIII specific activity with acyl-CoA substrates; conditions: for Specific Activity with Acetyl-CoA: substrate acetyl-CoA; for Specific Activity with Acetyl-CoA / Specific Activity with Isobutyryl-CoA: n.d. = not detectable; for Specific Activity with Isobutyryl-CoA: substrate isobutyryl-CoA
Method: The method comprises (i) incubating holo-ACP, malonyl-CoA, acyl-CoA, NADPH, and malonyl-CoA:ACP transacylase (FabD), (ii) adding KASIII and 3-ketoacyl-ACP reductase (FabG), and (iii) measuring the change in absorbance at 340 nm when NADPH is converted to NADP+ during reduction of 3-ketoacyl-ACP to 3-hydroxyl-acyl ACP by FabG.
Activity of A. acidocaldarius KASIII with different acyl-CoA substrates (acetyl-CoA, isobutyryl-CoA and 3-hydroxybutyryl-CoA (Sigma-Aldrich)) was ascertained by a coupled assay. The assay was performed in 96-well plate format with three replicates for each reaction condition. In a total volume of 100 μl for each reaction the reaction mix containing 100 μM holo-ACP, 200 μM malonyl-CoA, 10 mM DTT, 50 μM acyl-CoA substrate (either acetyl-CoA, isobutyryl-CoA or 3-hydroxy-butyryl-CoA) and 200 μM NADPH in 0.1 M sodium phosphate buffer (pH 7.2) was pre-incubated with 60 μg of FabD for two minutes. The reaction was started by the addition of 30 μg of FabG and varying concentrations of A. acidocaldarius (0.5-15 μg). Change in absorbance of NADPH that was being converted to NADP^+ during reduction of 3-ketoacyl-ACP 3-hydroxy-acyl-ACP by FabG was recorded at 340 nm using a Biotek multi-plate reader.
Spectrophotometric assay was used to assess the activity of A. acidocaldarius KASIII with various acyl-CoA substrates. The assay coupled the appearance of the KASIII-product (3-ketoacyl-ACP) to the oxidation of NADPH, catalyzed by 3-ketoacyl-ACP reductase (FabG).
KASIII enzymatic activity was ascertained via spectrophotometric assay, which coupled the appearance of 3-ketoacyl-ACP to the oxidation of NADPH, using the E. coli FabG protein to reduce 3-ketoacyl-ACP to 3-hydroxyacyl-ACP. The assay was performed in a 96-well plate-format with three technical replicates for each reaction condition. In a total volume of 100 μl for each reaction, the reaction mix contained 100 μM holo-ACP, 200 μM malonyl-CoA, 10 mM DTT, 50 μM acyl-CoA substrate, and 200 μM NADPH in 0.1 M sodium phosphate buffer (pH 7.2). This mixture was pre-incubated with 60 μg of FabD for two minutes to initiate synthesis of malonyl-ACP from malonyl-CoA and holo-ACP. The reaction was then started by the addition of 30 μg of FabG and varying concentrations of KASIII enzyme (0.5-15 μg). As KASIII catalysed the condensation of acyl-CoA with malonyl-ACP to form 3-ketoacyl-ACP, FabG reduced the 3-ketoacyl-ACP intermediate to 3-hydroxy-acyl ACP in the presence of NADPH.

[2] = Saturation Transfer Difference NMR of KASIII enzymes with acetyl-CoA or isobutyryl-CoA; type: binding
Method: NMR experiments were performed at 25° C. on a Bruker AV700 MHz spectrometer equipped with a 5 mm HCN cryoprobe. Samples for STD NMR experiments were prepared in 0.1 M sodium phosphate buffer (pH 7.4) with 5% D2O. The protein/ligand ratio was set as 1:100 with KASIII concentration in the 20-25 μM range. Saturation was applied as CW pulse with a power of 58-60 Hz, with on-resonance pulses at 0.62 ppm and 6.86 ppm for upfield and downfield, respectively. The off-resonance pulse was applied at 45 ppm. 3-9-19 WATERGATE suppression was used with a T1-ρ filter. Saturation time of five seconds with an additional delay of 5.1 seconds was used. A set of three replicates was acquired, with 32 scans in each replicate, for each STD NMR experiment of KASIII wild-type or mutated enzyme with a ligand, which was either acetyl-CoA or isobutyryl-CoA (Sigma-Aldrich, St. Louis, Mo.). The reference and the saturated spectra were obtained in an interleaved manner. Resonance assignments of 1H NMR spectra of free ligands were completed using ID 1H and COSY.
Control experiments were carried out by applying on- and off-resonance saturation pulses either to the ligand in the absence of protein, or to the ligand in the presence of denatured protein.
Relative STD effects (ASTD) were calculated according to the equation ASTD=(Io−Isat)/Io where Isat is the signal intensity of the saturated spectrum and Io is the signal intensity of the reference spectrum (Mayer et al., J. Am. Chem. Soc. 123: 6108-6117 (2001)). STD amplification factor was calculated according to the equation: STDaf=ASTD×molar ligand excess.
STD NMR experiments elucidated interactions of these purified enzymes (both wild-type and mutated) with straight-chain substrate (acetyl-CoA) and branched-chain substrate (isobutyryl-CoA) and enabled mapping of binding epitopes on the two substrates. Relative saturation transfer to each of the binding epitopes was measured and converted to the STD amplification factor (STDaf), which is an indicator of ligand binding (Mayer et al., J. Am. Chem. Soc. 123: 6108-6117 (2001)). Ligand epitopes with high STDaf values are assumed to receive higher saturation transfer from the enzyme, and thus are in close contact with the enzyme.

B1: B. subtilis KASIIIa Wild-type: B. subtilis KASIIIA, bfabHA (yjaX) locus, GenBank CAB12974.1, amino acid sequence SEQ ID NO:64 (protein)
chain: MKAGILGVGRYIPEKVLTNHDLEKMVETSDEWIRTRTGIEERRIAADDVFSSHMAVAAAKNALEQAEVAAEDLDMILVATVTPDQSFPTVSCMIQEQLGAKKACAMDISAACAGFMYGVVTGKQFIESGTYKHVLVVGVEKLSSITDWEDRNTAVLFGDGAGAAVVGPVSDDRGILSFELGADGTGGQHLYLNEKRHTIMNGREVFKFAVRQMGESCVNVIEKAGLSKEDVDFLIPHQANIRIMEAARERLELPVEKMSKTVHKYGNTSAASIPISLVEELEAGKIKDGDVVVMVGFGGGLTWGAIAIRWGR
modifications: B. subtilis
For B1, the “Catalytic activity with the isobutyryl-CoA substrate retained” value ([1]; conserved Phe mutated to Ala, compared with wild-type) was “about 25%”, the “Specific Activity with Acetyl-CoA” value [1] was 64 ± 32 nmol/min/mg and the “Specific Activity with Isobutyryl-CoA” value [1] was 205 ± 139 nmol/min/mg. The “Higher saturation of HAP proton of isobutyryl-CoA as compared to the acetyl-CoA HAP proton” value ([2]; isobutyryl-CoA vs acetyl-CoA) was ~28%, the “STD amplification factor (STDaf), HT proton of acetyl-CoA” value ([2]; protein/ligand 1:100, 25° C.) was 1.5 and the “STD amplification factor (STDaf), HT proton of isobutyryl-CoA” value ([2]; protein/ligand 1:100, 25° C.) was 1.5.

B2: B. subtilis KASIIIa F208V: B. subtilis KASIIIA single mutant F208V, amino acid sequence SEQ ID NO:120 (protein)
chain: MKAGILGVGRYIPEKVLTNHDLEKMVETSDEWIRTRTGIEERRIAADDVFSSHMAVAAAKNALEQAEVAAEDLDMILVATVTPDQSFPTVSCMIQEQLGAKKACAMDISAACAGFMYGVVTGKQFIESGTYKHVLVVGVEKLSSITDWEDRNTAVLFGDGAGAAVVGPVSDDRGILSFELGADGTGGQHLYLNEKRHTIMNGREVFKVAVRQMGESCVNVIEKAGLSKEDVDFLIPHQANIRIMEAARERLELPVEKMSKTVHKYGNTSAASIPISLVEELEAGKIKDGDVVVMVGFGGGLTWGAIAIRWGR
modifications: B. subtilis KASIIIA mutant; (208)..(208) phenylalanine at amino acid position 208 replaced with valine
With B2 the “Decrease in saturation transfer/STDaf for isobutyryl-CoA HT and HB protons in comparison to the wild-type” value ([2]; mutant vs wild-type) was ~40%.

B3: B. subtilis KASIIIb W221V: B. subtilis KASIIIB single mutant W221V, amino acid sequence SEQ ID NO:128 (protein)
chain: MSKAKITAIGTYAPSRRLTNADLEKIVDTSDEWIVQRTGMRERRIADEHQFTSDLCIEAVKNLKSRYKGTLDDVDMILVATTTSDYAFPSTACRVQEYFGWESTGALDINATCAGLTYGLHLANGLITSGLHQKILVIAGETLSKVTDYTDRTTCVLFGDAAGALLVERDEETPGFLASVQGTSGNGGDILYRAGLRNEINGVQLVGSGKMVQNGREVYKVAARTVPGEFERLLHKAGLSSDDLDWFVPHSANLRMIESICEKTPFPIEKTLTSVEHYGNTSSVSIVLALDLAVKAGKLKKDQIVLLFGFGGGLTYTGLLIKWGM
modifications: B. subtilis KASIIIB mutant; (221)..(221) tryptophan at amino acid position 221 replaced with valine
For B3, the “Specific Activity with Isobutyryl-CoA” value [1] was “completely eliminated activity”.

B4: B. subtilis KASIIIb V226L: B. subtilis KASIIIB single mutant V226L, amino acid sequence SEQ ID NO:130 (protein)
chain: MSKAKITAIGTYAPSRRLTNADLEKIVDTSDEWIVQRTGMRERRIADEHQFTSDLCIEAVKNLKSRYKGTLDDVDMILVATTTSDYAFPSTACRVQEYFGWESTGALDINATCAGLTYGLHLANGLITSGLHQKILVIAGETLSKVTDYTDRTTCVLFGDAAGALLVERDEETPGFLASVQGTSGNGGDILYRAGLRNEINGVQLVGSGKMVQNGREVYKWAARTLPGEFERLLHKAGLSSDDLDWFVPHSANLRMIESICEKTPFPIEKTLTSVEHYGNTSSVSIVLALDLAVKAGKLKKDQIVLLFGFGGGLTYTGLLIKWGM
modifications: B. subtilis KASIIIB mutant; (226)..(226) valine at amino acid position 226 replaced with leucine
With B4 the “Loss of activity with isobutyryl-CoA” value ([1]; mutant compared with wild-type enzyme) was “approximately 50%” and the “Specific Activity with Isobutyryl-CoA” value [1] was 134 ± 6 nmol/min/mg.

B5: E. coli KASIII F304A (protein)
chain: MYTKIIGTGSYLPEQVRTNADLEKMVDTSDEWIVTRTGIRERHIAAPNETVSTMGFEAATRAIEMAGIEKDQIGLIVVATTSATHAFPSAACQIQSMLGIKGCPAFDVAAACAGFTYALSVADQYVKSGAVKYALVVGSDVLARTCDPTDRGTIIIFGDGAGAAVLAASEEPGIISTHLHADGSYGELLTLPNADRVNPENSIHLTMAGNEVFKFAVTEMAHIVDETLAANNLDRSQLDWLVPHQANLRIISATAKKLGMSMDNVVVTLDRHGNTSAASVPCALDEAVRDGRIKPGQLVLLEAAGGGFTWGSALVRF
modifications: E. coli mutant; (304)..(304) phenylalanine at amino acid position 304 replaced with alanine
With B5 the “Lower saturation transfer to the HT protons of acetyl-CoA and isobutyryl-CoA compared to the wild-type” value ([2]; mutant vs wild-type) was “approximately 60%”.

B6: E. coli KASIII V215F_L220M: E. coli KASIII double mutant V215F_L220M, amino acid sequence SEQ ID NO:116 (protein)
chain: MYTKIIGTGSYLPEQVRTNADLEKMVDTSDEWIVTRTGIRERHIAAPNETVSTMGFEAATRAIEMAGIEKDQIGLIVVATTSATHAFPSAACQIQSMLGIKGCPAFDVAAACAGFTYALSVADQYVKSGAVKYALVVGSDVLARTCDPTDRGTIIIFGDGAGAAVLAASEEPGIISTHLHADGSYGELLTLPNADRVNPENSIHLTMAGNEVFKFAVTEMAHIVDETLAANNLDRSQLDWLVPHQANLRIISATAKKLGMSMDNVVVTLDRHGNTSAASVPCALDEAVRDGRIKPGQLVLLEAFGGGFTWGSALVRF
modifications: E. coli mutant; (215)..(215) valine at amino acid position 215 replaced with phenylalanine; (220)..(220) leucine at amino acid position 220 replaced with methionine
In the case of B6, the “Specific Activity with Acetyl-CoA” value [1] is reported as 221 ± 104 nmol/min/mg and the “Specific Activity with Isobutyryl-CoA” value [1] is reported as 18 ± 5 nmol/min/mg.

B7: B. subtilis KASIIIa F208V_M213L: B. subtilis KASIIIA double mutant F208V_M213L, amino acid sequence SEQ ID NO:124 (protein)
chain: MKAGILGVGRYIPEKVLTNHDLEKMVETSDEWIRTRTGIEERRIAADDVFSSHMAVAAAKNALEQAEVAAEDLDMILVATVTPDQSFPTVSCMIQEQLGAKKACAMDISAACAGFMYGVVTGKQFIESGTYKHVLVVGVEKLSSITDWEDRNTAVLFGDGAGAAVVGPVSDDRGILSFELGADGTGGQHLYLNEKRHTIMNGREVFKVAVRQLGESCVNVIEKAGLSKEDVDFLIPHQANIRIMEAARERLELPVEKMSKTVHKYGNTSAASIPISLVEELEAGKIKDGDVVVMVGFGGGLTWGAIAIRWGR
modifications: B. subtilis KASIIIA double mutant; (208)..(208) phenylalanine at amino acid position 208 replaced with valine; (213)..(213) methionine at amino acid position 213 replaced with leucine
With B7 the “Specific Activity with Isobutyryl-CoA” value [1] was 17 ± 7 nmol/min/mg.

B8: B. subtilis KASIIIa F297A: B. subtilis KASIII containing an F297A mutation, amino acid sequence SEQ ID NO:126 (protein)
chain: MKAGILGVGRYIPEKVLTNHDLEKMVETSDEWIRTRTGIEERRIAADDVFSSHMAVAAAKNALEQAEVAAEDLDMILVATVTPDQSFPTVSCMIQEQLGAKKACAMDISAACAGFMYGVVTGKQFIESGTYKHVLVVGVEKLSSITDWEDRNTAVLFGDGAGAAVVGPVSDDRGILSFELGADGTGGQHLYLNEKRHTIMNGREVFKVAVRQLGESCVNVIEKAGLSKEDVDFLIPHQANIRIMEAARERLELPVEKMSKTVHKYGNTSAASIPISLVEELEAGKIKDGDVVVMVGAGGGLTWGAIAIRWGR
modifications: B. subtilis KASIIIA mutant; (297)..(297) phenylalanine at amino acid position 297 replaced with alanine
For B8, the “Specific Activity with Isobutyryl-CoA” value [1] was 56 ± 28 nmol/min/mg.
